From US20130136748A1 (Ablynx, published 2013) come the findings set out here.

As usually defined, the Kd is a measure of binding affinity in units of concentration. The kon is a measure of how fast the partners come together. In general, % inhibition refers to the change of the read-out against control, counted positive when it falls. The term IC50 denotes the concentration needed to halve the response being measured. Lower therefore signals greater potency. As a reminder, the koff is the first-order rate constant of dissociation.

“And” between values parts separate entries of the source, which are not always exact repeats. Equal entries are not always repeated.

For assay [1], the target named is T1, Chimeric chicken Her3-human domain 1 (AA1-206 human, AA207-642 chicken) (chicken/human chimera).
T1 construct: Transmembrane and extracellular regions, on HEK293 cells
T1 chain: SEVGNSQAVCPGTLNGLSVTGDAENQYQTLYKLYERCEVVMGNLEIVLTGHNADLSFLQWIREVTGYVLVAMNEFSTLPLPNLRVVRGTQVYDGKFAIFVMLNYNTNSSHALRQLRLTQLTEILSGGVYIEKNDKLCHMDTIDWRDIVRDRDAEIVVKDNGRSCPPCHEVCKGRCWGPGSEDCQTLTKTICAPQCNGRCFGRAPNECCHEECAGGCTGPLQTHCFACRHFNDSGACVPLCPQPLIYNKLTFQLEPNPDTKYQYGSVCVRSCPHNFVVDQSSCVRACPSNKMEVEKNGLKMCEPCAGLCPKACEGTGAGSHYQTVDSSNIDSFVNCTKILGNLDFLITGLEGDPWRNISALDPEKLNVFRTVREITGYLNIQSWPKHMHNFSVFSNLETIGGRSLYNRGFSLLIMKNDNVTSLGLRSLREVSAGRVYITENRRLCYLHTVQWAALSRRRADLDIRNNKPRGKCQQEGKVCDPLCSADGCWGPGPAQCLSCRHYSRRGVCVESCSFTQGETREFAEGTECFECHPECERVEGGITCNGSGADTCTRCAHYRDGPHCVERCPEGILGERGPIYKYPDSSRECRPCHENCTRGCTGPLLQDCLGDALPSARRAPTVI
As to the kind of experiment: FACS, HEK293 with chimeric HER3. (In flow cytometry, cells or beads pass a laser one at a time.)

The target in assay [2] is T2, Chimeric chicken Her3-human domain 2 (AA207-328 human) (chicken/human chimera).
T2 construct: Transmembrane and extracellular regions, on HEK293 cells
T2 chain: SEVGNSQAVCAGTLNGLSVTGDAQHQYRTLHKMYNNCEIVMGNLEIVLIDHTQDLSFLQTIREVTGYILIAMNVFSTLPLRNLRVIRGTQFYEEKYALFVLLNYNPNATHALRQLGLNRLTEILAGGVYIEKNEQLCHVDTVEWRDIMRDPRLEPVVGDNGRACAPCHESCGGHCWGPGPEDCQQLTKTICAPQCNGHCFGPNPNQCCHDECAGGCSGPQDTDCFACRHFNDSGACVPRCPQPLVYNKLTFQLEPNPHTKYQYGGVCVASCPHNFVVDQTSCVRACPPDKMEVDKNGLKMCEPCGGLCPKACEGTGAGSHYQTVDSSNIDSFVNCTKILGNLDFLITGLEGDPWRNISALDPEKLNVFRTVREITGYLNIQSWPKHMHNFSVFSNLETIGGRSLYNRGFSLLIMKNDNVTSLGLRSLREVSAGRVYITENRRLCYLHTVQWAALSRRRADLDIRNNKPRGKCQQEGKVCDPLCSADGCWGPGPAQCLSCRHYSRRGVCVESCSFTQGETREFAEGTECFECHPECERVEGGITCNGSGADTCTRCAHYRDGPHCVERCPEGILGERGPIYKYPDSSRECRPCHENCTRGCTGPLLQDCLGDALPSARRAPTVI
As to the kind of experiment: FACS, HEK293 with chimeric HER3.

Assay [3] addresses T3, human HER3-Fc (R&D Systems, 348-RB) (human, UniProt P21860 20-643).
T3 construct: Bought; also called hHER3-Fc; Fc-HER3; Fc part of the bought chimera not given, not described
The assay can be described thus: SPR, HER3-Fc captured; heterogenous curve, main interaction (89%). For orientation: SPR reads the build-up and loss of mass on a sensor chip optically.

Assay [4] has as its target T3, human HER3-Fc (R&D Systems, 348-RB). As to the kind of experiment: HRG competition alphascreen. (In general: Bead proximity is the source of the signal in Alpha formats.)
Assay [5] shares this target. As to the kind of experiment: HRG competition alphascreen. This is another data set of the same source.
Assay [6] has the same target. The assay can be described thus: HRG competition alphascreen. This is another data set of the same source.
Assay [7] has the same target. As to the kind of experiment: SPR, HER3-Fc captured by anti-Fc.
Assay [8] addresses T4, hHER3 full length (human, UniProt P21860 20-1342).
T4 construct: On transfected CHO, CHO HER2/HER3, CHO EGFR/HER3 or CHO Flp-In cells; endogenous HER3 of MCF-7 and MDA-MB468 cells in the signalling assays; also called human HER3
The assay can be described thus: FACS competition with HRG1-β1-EGF, CHO-HER3.

The target of assay [9] is T4, hHER3 full length. As to the kind of experiment: cell-based or functional assay.
The target of assay [10] is T3, human HER3-Fc (R&D Systems, 348-RB). As to the kind of experiment: 18G11 competition alphascreen.
The target of assay [11] is T5, hHER3 ECD (human HER3 extracellular domain) (human, UniProt P21860 20-643).
T5 construct: also called recombinant HER3-ECD
The assay can be described thus: off rate screening on recombinant HER3-ECD.

Assay [12] deals with T4, hHER3 full length. The assay can be described thus: cell-based or functional assay. This is another data set of the same source.
The target in assay [13] is T5, hHER3 ECD (human HER3 extracellular …). As to the kind of experiment: SPR off rate on HER3-ECD, periplasmic extract.
For assay [14] the target is unchanged. The assay can be described thus: SPR off rate.
In assay [15] the target is T3, human HER3-Fc (R&D Systems, 348-RB). As to the kind of experiment: alphascreen, competitor biotinylated 18G11.

B1: 17C08 (VHH)
VHH: EVQLVESGGGLMQAGDSLRLSCAASGRAFSSYALGWFRRAPGKERECVAATDRLGDNTYFPDSVKGRFTISRDNAKNTLYLQMNNLKPEDTAVYYCAAGAVRYGVSTSPMNYNYWGQGTQVTVSS
notes: also called 17C8
In the case of B1, the binding result in [1] is listed as “binds”. Besides, in [2], the binding result is on record as “binds”. Moreover, in assay [3], the Kd is 48 nM and the on-rate constant (kon) was 8400 M⁻¹ s⁻¹.

B2: 04C07 (VHH)
VHH: EVQLVESGGGLVQAGGSLRLSCAASGFTFSSYPMSWVRQAPGKGPAWVSTVSPGGITTSYADSVKGRFTISRDNAKNTLYLQMNSLKPEDTAVYYCLRDLNNRGQGTQVTVSS
notes: also called HER3MS04C07; HER3MS004C07
For B2, the binding result in assay [1] is “binds”. Also, in assay [4], the “% inhibition” value was 86.7%. Besides, the IC50 in assay [4] was 0.264 nM; in [5] it was 0.27 nM and 0.69 nM; in assay [6], 0.18 nM; with hHER3 full length [8], 4.26 nM. For the same molecule, the Kd in assay [7] is 0.22 nM. In addition, the kon in assay [7] turned out to be 1.2e+06 M⁻¹ s⁻¹. Further, the “IC50 pHER3, HRG1-β1 stimulated MCF7” value in the assay with hHER3 full length [9] is 6.25e-09 M.

B3: 18G11 (VHH)
VHH: EVQLVESGGGLVQPGGSLRLSCAASGTLFKINAMGWYRQAPGKRRELVALITSSDTTDYAESVEGRFTISRDNTWNAVYLQMNSLKPEDTAVYYCHSDHYSMGVPEKRVIMYGQGTQVTVSS
notes: c-myc, His6-tagged form as expressed; also called HER3MS18G11; HER3MS018G11
On to B3, for which the binding result in [2] is reported as “binds”. The IC50 is 4.4 nM in [10] and 3.2 nM in assay [15]. The koff in assay [11] was 0.00061 s⁻¹; in [13] it was 0.00062 s⁻¹ and 0.00077 s⁻¹; in assay [14] it was 0.00043 s⁻¹ and 0.00047 s⁻¹. The “IC50 pHER3 blocking, HRG stimulated MCF7” value in the assay with hHER3 full length [12] was 2.91e-08 M. For the same molecule, in assay [7], the dissociation constant Kd was determined as 10 nM. In [7], this molecule returned a kon of 26000 M⁻¹ s⁻¹.
